According to patent US20260167724A1:
Where “and” joins values, the source holds several entries; their conditions need not be identical. Identical values can stand only once.

Target: CD3 on the Jurkat cell
Test: cell-based or functional assay

Luciferase Amount, pH 6.0, at CHO-Axl concentration (ng/mL) 0.00000: 893 RLU and 937 RLU | Luciferase Amount, pH 6.0, at CHO-Axl concentration (ng/mL) 0.01000: 1230 RLU and 1330 RLU | Luciferase Amount, pH 6.0, at CHO-Axl concentration (ng/mL) 0.1000: 2310 RLU and 2000 RLU | Luciferase Amount, pH 6.0, at CHO-Axl concentration (ng/mL) 1.000: 10700 RLU and 10000 RLU | Luciferase Amount, pH 6.0, at CHO-Axl concentration (ng/mL) 10.00: 44900 RLU and 46700 RLU | Luciferase Amount, pH 6.0, at CHO-Axl concentration (ng/mL) 100.0: 77200 RLU and 83200 RLU | Luciferase Amount, pH 6.0, at CHO-Axl concentration (ng/mL) 1000.0: 96200 RLU and 90400 RLU | Luciferase Amount, pH 6.0, at CHO-Axl concentration (ng/mL) 10000.0: 100000 RLU and 102000 RLU | Luciferase Amount, pH 7.4, at CHO-Axl concentration (ng/mL) 0.00000: 2280 RLU and 2160 RLU | Luciferase Amount, pH 7.4, at CHO-Axl concentration (ng/mL) 0.01000: 2270 RLU and 2350 RLU | Luciferase Amount, pH 7.4, at CHO-Axl concentration (ng/mL) 0.1000: 3930 RLU and 3970 RLU | Luciferase Amount, pH 7.4, at CHO-Axl concentration (ng/mL) 1.000: 17700 RLU and 18400 RLU | Luciferase Amount, pH 7.4, at CHO-Axl concentration (ng/mL) 10.00: 51800 RLU and 57100 RLU | Luciferase Amount, pH 7.4, at CHO-Axl concentration (ng/mL) 100.0: 94100 RLU and 99200 RLU | Luciferase Amount, pH 7.4, at CHO-Axl concentration (ng/mL) 1000.0: 113000 RLU and 112000 RLU | Luciferase Amount, pH 7.4, at CHO-Axl concentration (ng/mL) 10000.0: 135000 RLU and 139000 RLU
B1: Axl-WT×CD3-WT (bispecific antibody, part only; not given: constant regions and linkers, not shown: a dimerising Fc or GST)
heavy: EVQLVQSGAEVKKPGATVKISCKVSGYSFTGHTMNWIRQPPGKGLEWIGLIKPSNGGTSYNQKFKGRVTISADKSISTAYLQWSSLKASDTAMYYCAHGHYESYFAMDYWGQGTSVTVSS
light (part 1 of 2), part: DIQMTQSPSSLSASVGDRVTITCKASQDVSSAVAWYQQKPGQAPRLLIYWASTRHTGVPSRFSGSGSGTEFTLTISSLQPDDFATYYCQEHFSTPLTFGQGTKVEIK
light (part 2 of 2), part: QAVVTQEPSLTVSPGGTVTLTCRSSTGAVTTSNYANWVQQKPGQAPRGLIGGTNKRAPWTPARFSGSLLGGKAALTITGAQAEDEADYYCALWYSNLWVFGGGTKLTVLGEVQLVESGGGLVQPGGSLRLSCAASGFTFNTYAMNWVRQAPGKGLEWVARIRSKYNNYATYYADSVKDRFTISRDDSKNSLYLQMNSLKTEDTAVYYCVRHGNFGNSYVSWFAYWGQGTLVTVSS
